“And” between values parts separate entries of the source, which are not always exact repeats. Equal values may be shown once. Read-outs that look alike come from different tables or passages of the source. Blank lines part the entries; values can stand above or below the molecule they belong to.
Legend:
[1] = biological target: prostaglandin F2α receptor (FP); conditions: literature value; read-out: [^3 H]PGF2α binding affinity reported by Ito et al. (1994); cited from earlier work
[2] = system: prostaglandin F2α receptor (FP); test: Effect of intracellular messenger altering agents on [3H]PGF2α binding and on FPRP inhibition of it; format: cell-based
Experimental: In a third experiment, transfected cells were treated for 30 min with exposure to the following: phorbol 12-myristate 13-acetate 10^-8 M, prostaglandin E1, 10^-7 M, A23187 10^-6 M, okadaic acid 10^-6 M, or 8-Br-cAMP 10^-5 M (Table 4).
The effect of brefeldin A (3 μg/ml, 2 hr), chloroquine (100 μM, 6 hr) and tunicamysin (2.5 μg/ml, 20 hr) was determined.

[3] = biological target: prostaglandin F2α receptor (FP)
[4] = system: prostaglandin F2α receptor (FP); remark: listed apart in the source
Experimental: Cells transfected with either FP and pSG5 or FP and FPRP were plated in normal media containing serum and at either 21 h, 6 h or 0 h prior to [^3 H]PGF2α binding analysis had their media replaced with serum deficient medium, in order to obviate any effects due to hormones or factors present in the added serum.

[5] = system: prostaglandin F2α receptor (FP); remark: listed apart in the source
Experimental: Models for FPRP interaction with FP were tested as follows. First, a conditioned media experiment was performed with either the pSGS vector, or the FPRP cDNA construct transfected into COS cells. Following plating and culture of these transfected cells for 24 hours the media in which the cells were grown was placed on cultures of cells transfected with FP. The cells transfected with FP and cultured with the conditioned medium for 4 hours were then analyzed for [^3 H]PGF2α binding. In a second experiment, FPRP or pSG5 were transfected as described above into one set of cells, FP alone into a second set of cells, and the cells co-cultured in the ratios shown in Table 3.
Briefly, COS cells were transfected with FP, pSG5, or FPRP, and plated. 24 h post transfection, media was removed from the pSG5 and FPRP transfected cultures, centrifuged 7 min at 1000×g, and added back to the FP culture media at the indicated ratios. Following 4 h of this media treatment, [^3 H]PGF2α binding was analyzed. As a control, FP and FPRP were cotransfected. For co-cultured cells, COS cells were transfected with FP, pSG5, or FPRP, mixed at a 1:1 ratio and cultured. As a control, cells were either transfected with FP or FP+FPRP.

[6] = system: COS cells (endogenous specific [3H]PGF2α binding); test: [3H]PGF2α binding to COS cell cultures transfected with FPRP cDNA construct alone; format: cell-based; conditions: COS cells transfected with FPRP cDNA construct only, 24 h
Experimental: COS cells were electroporated, cultured for 24 h and analyzed for specific [^3 H]PGF2α binding. Total transfected DNA is indicated on the abscissa. Data points represent mean±standard deviation, n=3.
Methods. COS-1 cells were used for transient expression experiments. Briefly, 70-80% confluent cultures (grown in Ham's F-12 media plus 8% fetal bovine serum, with media replacement 24 hours prior to transfection)were harvested with a trypsin/EDTA solution (final concentration: 0.02% ethylenediaminetetracetic acid, 0.05% sodium bicarbonate, and 0.5% Enzart 40x trypsin), washed twice with culture media, then resuspended in ice cold culture media at approximately 1.66×10^7 cells per ml. Aliquots of 0.15 ml (2.5×10^6 cells) were placed in electroporation cuvettes (BioRad, Hercules, Calif.) along with plasmid DNA, placed on ice for 10 minutes, electroporated with a Bio Rad electroporater (settings: 250 μF, […], .infin..OMEGA., 0.4 cm cuvette), 1 ml of ice cold culture media was added and the cells were left on ice for 10 minutes before plating.
The binding incubation was at 37° for 20 minutes.

[7] = system: prostaglandin F2α receptor (FP); test: [3H]PGF2α specific binding to COS cells cotransfected with FP cDNA and a test cDNA construct; format: cell-based, rat, mouse
[8] = system: prostaglandin F2α receptor (FP); test: Cotransfection of a third construct along with FP and FPRP, [3H]PGF2α binding; format: cell-based; conditions: FP + FPRP, no third construct; FP + pSG5 = 100
Description: Therefore, a strategy based on cotransfection of a third construct (along with FP and FPRP) was pursued. These third party constructs included ones coding for the protease inhibitors alpha-l trypsin inhibitor and crmA, an inhibitor of cell death, bcl2, and few nonspecific control molecules including the vitamin D receptor, a secreted immunoglobulin molecule, and the empty parent vector pSG5 only. All groups and treatments were compared with control treatment of FP+pSG5 vs. FP+FPRP.

[9] = biological target: prostaglandin F2α receptor (FP), cDNA construct whose species the place does not tell
[10] = biological target: prostaglandin F2α receptor (FP), cDNA construct whose species the place does not tell; remark: listed apart in the source
[11] = system: prostaglandin F2α receptor (FP); test: [3H]PGF2α binding in COS cells co-transfected with FP and an FPRP variant construct; conditions: 3.5 μg FP cDNA construct and 5 μg test cDNA construct
[12] = control treatment (EtOH vehicle or Control), no agent

effect of agent on basal [^3 H]PGF2α binding ([2]; FP transfected cells pretreated with the agent): decreased subsequent basal FP binding | Kd ([3]; read-out: [^3 H]PGF2α binding affinity, FP + pSG5, asFPRP, FPRP or dssFPRP: all 4 treatments similar): 8 nM
Molecule: CCCCC[C@H](O)/C=C/[C@@H]1[C@@H](C/C=C\CCCC(=O)O)[C@@H](O)C[C@H]1O [PGF2α, Prostaglandin F2α]
Kd [1]: 25 nM | % Control [^3 H]PGF2α Binding, FP + FPRP ([2]; FP + FPRP transfected cells treated with the agent): 40 ± 3% | % Control [^3 H]PGF2α Binding, FP + pSG5 ([2]; FP + pSG5 transfected cells treated with the agent): 73 ± 9% | % Inhibition (FPRP inhibition of [^3 H]PGF2α binding) ([2]; in presence of the agent at the concentration/time given): 45%

% Control [^3 H]PGF2α Binding ([4]; Serum Removal: t = 1 h): 38 ± 7% | % Control [^3 H]PGF2α Binding ([4]; Serum Removal: t = -6 h): 48 ± 4% | % Control [^3 H]PGF2α Binding ([4]; Serum Removal: t = -21 h): 41 ± 3% | effect of growth in serum deficient media on percent of FPRP inhibition ([4]; serum deficient medium 21 h, 6 h or 0 h prior to binding): did not alter | % Control [^3 H]PGF2α Binding ([5]; FP + FPRP cotransfection pos. control of the conditioned media experiment): 43 ± 5% | % Control [^3 H]PGF2α Binding ([5]; FP + FPRP cotransfection positive control of the co-culture experiment): 45 ± 3% | % Control [^3 H]PGF2α Binding ([5]; FP cells + 1:2 media from FPRP transfection, 4 h): 103 ± 10% | % Control [^3 H]PGF2α Binding ([5]; FP cells + 1:4 media from FPRP transfection, 4 h): 112 ± 10% | % Control [^3 H]PGF2α Binding ([5]; FP cells + 1:8 media from FPRP transfection, 4 h): 113 ± 11% | % Control [^3 H]PGF2α Binding ([5]; FP transfected cells co-cultured 1:1 with FPRP transfected cells): 120 ± 10% | ability to inhibit [^3 H]PGF2α binding to FP ([5]; conditioned media or co-culture type experiments): unable to inhibit | % Control [^3 H]PGF2α Binding, FP + FPRP [2, 12]: 52 ± 3% and 37 ± 3% | % Inhibition (FPRP inhibition of [^3 H]PGF2α binding) [2, 12]: 48% and 63% | inhibition of [^3 H]PGF2α binding to FP ([3]; saturation binding experiment, FP + FPRP cotransfection): approximately 60% | type of inhibition of [^3 H]PGF2α binding ([3]; saturation binding, Scatchard analysis): non-competitive inhibitor | % Control [^3 H]PGF2α Binding [8]: 37 ± 5%
B1: FPRP: rat prostaglandin F2α receptor regulatory protein (SEQ ID NO:1), expressed from FPRP cDNA in pSG5, construct 232 (SEQ ID NO:10) (protein)
chain: MGRPAPRPLLLALLSLAVCRGRVVRVPAGTLVRVVGTELVIPCNVSDYDGPSEQNFDWSFSSSGSSFVELASTWEVGFPAQQYRERLQRGDILLRRTANDAVELHIKNVQPSDQGHYKCSTPSTDATVQGNYEDTMQVKVLADALVVGPSSRPPPGLSLREGEPFELRCIASTTSPLHTHLALRWELHRGPVHRSILALSHEGRFHPGPGYEQRYHSGDVRLDTVGSDAYRLSVARALSADQGSYRCVVSEWITEQGSWQEIQEKAVEVATVVIQPTALQLAVPRTVSVTEGKDLDLSCNITTDRVDDVRPEVTWYFKKTPDTSLLASHMLARLDRDSLVHSSPHVALSHVDTRSYHLLVRDVSKENSGYYLCLVALWAPGHNRSWHKVAEAMSAPSGVSVTWLEPEYQVYLNASKVPGFSDDPTELQCRVIDTKRVDAGVRLTVSWYYRMNRRNDDVVASELLAVMDGDWTLRYGERSKQRAQDGEFIFSKEHTDTFSFRIQRTTEEDRGSYYCVVSAWTRQRNSSWVKSKDVFSKPVNIFWASEDSVLVVKARQPKPFFAAGNTFEMTCKVSSKNIKSPRYSVLITAEKPVGDLSSPNETKYIISLDQDSVVKLENWTDASRVDGVVLEKVQEDEFRYRMYQTQVSDAGLYRCMVTAWSPIGGSLWREAATSLSNPIEIDFQTSGPIFNASVHSDTLSVTRGDLIKLFCIVTVDGAVLDPDDMAFDVSWFAVHSFGLDKAPILLSSLDRKGVVTTGQRDWKSTVSLERVSVLEFLLQVHGSEDQDFGNYYCSVTPWVRSPTGSWQREAEIHSRPIFITVKMDVLNAFKYPLLIGVGLSTVIRLLSCLIGYCSSHWCCKKEVRETRRERRRLMSMEMD
decrease of viability of the transfected cells (COS cells): 20-60% | effect of FPRP expression on [^3 H]PGF2α binding [6]: marked, dose dependent decrease | % CONTROL, [^3 H]PGF2α specific binding ([7]; COS cells cotransfected with FP + the named DNA, FP alone = 100): 30-50% | inhibitory activity of FPRP on [^3 H]PGF2α binding ([7]; COS cells nearly 100% confluent, media replaced ≈48 h prior to transfection): approximately 60% | % CONTROL [^3 H]PGF2α BINDING (FPRP inhibitory activity) ([7]; Standard: 80% confluent cells, 40 μg/dish post-electroporation, binding assay at 24 h): 30-50% | % CONTROL [^3 H]PGF2α BINDING (FPRP inhibitory activity) ([7]; binding buffer of Weipz et al. (1992), pH 6.0): 53 ± 8% | % CONTROL [^3 H]PGF2α BINDING (FPRP inhibitory activity) ([7]; binding buffer: standard buffer pH 6.0): 41 ± 5% | % CONTROL [^3 H]PGF2α BINDING (FPRP inhibitory activity) ([7]; binding buffer: standard buffer pH 7.0): 45 ± 3% | effect on [^3 H]PGF2α binding to FP ([7]; cotransfection with rFP or mFP): inhibited rFP and mFP equally | % CONTROL [^3 H]PGF2α BINDING (FPRP inhibitory activity) ([7]; density of cells post-electroporation: 40 μg/dish): 40 ± 5% | % CONTROL [^3 H]PGF2α BINDING (FPRP inhibitory activity) ([7]; density of cells post-electroporation: 20-30 μg/dish): 30 ± 5% | % CONTROL [^3 H]PGF2α BINDING (FPRP inhibitory activity) ([7]; density of cells post-electroporation: 60-80 μg/dish): 43 ± 4% | % CONTROL [^3 H]PGF2α BINDING (FPRP inhibitory activity) ([7]; density of cells prior to electroporation: 60-70% confluent): 35 ± 3% | % CONTROL [^3 H]PGF2α BINDING (FPRP inhibitory activity) ([7]; density of cells prior to electroporation: 80% confluent): 40 ± 5% | % CONTROL [^3 H]PGF2α BINDING (FPRP inhibitory activity) ([7]; density of cells prior to electroporation: 100% confluent): 38 ± 4% | % CONTROL [^3 H]PGF2α BINDING (FPRP inhibitory activity) ([7]; time between electroporation and binding: 24 hr): 36 ± 3% | % CONTROL [^3 H]PGF2α BINDING (FPRP inhibitory activity) ([7]; time between electroporation and binding: 48 hr): 33 ± 3%

% control ^3 H!PGF2α binding, co-culture of FPRP transfected cells with FP transfected cells 1:1 [9]: 120 % control | % control ^3 H!PGF2α binding, conditioned media from FPRP transfected cells on FP transfected cells [9]: 103 % control | inhibition of ^3 H!PGF2α binding, saturation binding experiment [10]: 60%
B2: rat prostaglandin F2α receptor regulatory protein (FPRP) (protein)
chain: RVVRVPAGTLVRVVGTELVIPCNVSDYDGPSEQNFDWSFSSSGSSFVELASTWEVGFPAQQYRERLQRGDILLRRTANDAVELHIKNVQPSDQGHYKCSTPSTDATVQGNYEDTMQVKVLADALVVGPSSRPPPGLSLREGEPFELRCIASTTSPLHTHLALRWELHRGPVHRSILALSHEGRFHPGPGYEQRYHSGDVRLDTVGSDAYRLSVARALSADQGSYRCVVSEWITEQGSWQEIQEKAVEVATVVIQPTALQLAVPRTVSVTEGKDLDLSCNITTDRVDDVRPEVTWYFKKTPDTSLLASHMLARLDRDSLVHSSPHVALSHVDTRSYHLLVRDVSKENSGYYLCLVALWAPGHNRSWHKVAEAMSAPSGVSVTWLEPEYQVYLNASKVPGFSDDPTELQCRVIDTKRVDAGVRLTVSWYYRMNRRNDDVVASELLAVMDGDWTLRYGERSKQRAQDGEFIFSKEHTDTFSFRIQRTTEEDRGSYYCVVSAWTRQRNSSWVKSKDVFSKPVNIFWASEDSVLVVKARQPKPFFAAGNTFEMTCKVSSKNIKSPRYSVLITAEKPVGDLSSPNETKYIISLDQDSVVKLENWTDASRVDGVVLEKVQEDEFRYRMYQTQVSDAGLYRCMVTAWSPIGGSLWREAATSLSNPIEIDFQTSGPIFNASVHSDTLSVTRGDLIKLFCIVTVDGAVLDPDDMAFDVSWFAVHSFGLDKAPILLSSLDRKGVVTTGQRDWKSTVSLERVSVLEFLLQVHGSEDQDFGNYYCSVTPWVRSPTGSWQREAEIHSRPIFITVKMDVLNAFKYPLLIGVGLSTVIRLLSCLIGYCSSHWCCKKEVRETRRERRRLMSMEMD
inhibitory activity of FPRP variant on [^3 H]PGF2α binding [11]: may be slightly more active at lower concentrations but does not inhibit quite as well as native FPRP (construct 232) at high concentrations

Source: patent US5747660A, “Nucleic acid encoding prostaglandin F2α receptor regulatory protein” (priority 1995, dated 1998)
